Test results: publication PMC8298264, “Function of cofactor Akirin2 in the regulation of gene expression in model human neutrophil-like HL60 cells” (Bioscience Reports, 2021)

Test system: human HL60 cells
Test: SWATH-MS proteomics, differential protein representation, akirin2 KO vs WT HL60 cells
Type: cell-based
Conditions: akirin2 KO vs WT HL60 cells, sheet "Under-represented in KO"
In short: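 Differential representation compares akirin2 KO with WT HL60 across three biological replicates, 5 µg digest each, acquired by data-independent SWATH on a 120-min gradient. Library built from combined IDA runs searched with Paragon; proteins accepted at 1% FDR, with total-area-sum normalization.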

B1: sp¦Q96JJ7¦TMX3_HUMAN (protein, UniProt Q96JJ7 25-454, looked up)
Protein disulfide-isomerase …: KGFVEDLDESFKENRNDDIWLVDFYAPWCGHCKKLEPIWNEVGLEMKSIGSPVKVGKMDATSYSSIASEFGVRGYPTIKLLKGDLAYNYRGPRTKDDIIEFAHRVSGALIRPLPSQQMFEHMQKRHRVFFVYVGGESPLKEKYIDAASELIVYTYFFSASEEVVPEYVTLKEMPAVLVFKDETYFVYDEYEDGDLSSWINRERFQNYLAMDGFLLYELGDTGKLVALAVIDEKNTSVEHTRLKSIIQEVARDYRDLFHRDFQFGHMDGNDYINTLLMDELTVPTVVVLNTSNQQYFLLDRQIKNVEDMVQFINNILDGTVEAQGGDSILQRLKRIVFDAKSTIVSIFKSSPLMGCFLFGLPLGVISIMCYGIYTADTDGGYIEERYEVSKSENENQEQIEESKEQQEPSSGGSVVPTVQEPKDVLEKKKD
- Fold Change: 0.267
- Log (Fold Change): -0.5736

B2: sp¦P10515¦ODP2_HUMAN (protein, UniProt P10515 87-647, looked up)
Dihydrolipoyllysine-residue …: SLPPHQKVPLPSLSPTMQAGTIARWEKKEGDKINEGDLIAEVETDKATVGFESLEECYMAKILVAEGTRDVPIGAIICITVGKPEDIEAFKNYTLDSSAAPTPQAAPAPTPAATASPPTPSAQAPGSSYPPHMQVLLPALSPTMTMGTVQRWEKKVGEKLSEGDLLAEIETDKATIGFEVQEEGYLAKILVPEGTRDVPLGTPLCIIVEKEADISAFADYRPTEVTDLKPQVPPPTPPPVAAVPPTPQPLAPTPSAPCPATPAGPKGRVFVSPLAKKLAVEKGIDLTQVKGTGPDGRITKKDIDSFVPSKVAPAPAAVVPPTGPGMAPVPTGVFTDIPISNIRRVIAQRLMQSKQTIPHYYLSIDVNMGEVLLVRKELNKILEGRSKISVNDFIIKASALACLKVPEANSSWMDTVIRQNHVVDVSVAVSTPAGLITPIVFNAHIKGVETIANDVVSLATKAREGKLQPHEFQGGTFTISNLGMFGIKNFSAIINPPQACILAIGASEDKLVPADNEKGFDVASMMSVTLSCDHRVVDGAVGAQWLAEFRKYLEKPITMLL
- Fold Change (KO vs WT): 0.571
- Log (Fold Change) (KO vs WT): -0.2434

B3: sp¦Q53GQ0¦DHB12_HUMAN (protein, UniProt Q53GQ0 1-312, looked up)
Very-long-chain 3-oxoacyl-CoA …: MESALPAAGFLYWVGAGTVAYLALRISYSLFTALRVWGVGNEAGVGPGLGEWAVVTGSTDGIGKSYAEELAKHGMKVVLISRSKDKLDQVSSEIKEKFKVETRTIAVDFASEDIYDKIKTGLAGLEIGILVNNVGMSYEYPEYFLDVPDLDNVIKKMININILSVCKMTQLVLPGMVERSKGAILNISSGSGMLPVPLLTIYSATKTFVDFFSQCLHEEYRSKGVFVQSVLPYFVATKLAKIRKPTLDKPSPETFVKSAIKTVGLQSRTNGYLIHALMGSIISNLPSWIYLKIVMNMNKSTRAHYLKKTKKN
- Fold Change (KO vs WT): 0.5753
- Log (Fold Change) (KO vs WT): -0.2401
